T1: CD25 on the CHO-CD25-overexpressing cell line (human, UniProt P01589 22-272)
T1 chain: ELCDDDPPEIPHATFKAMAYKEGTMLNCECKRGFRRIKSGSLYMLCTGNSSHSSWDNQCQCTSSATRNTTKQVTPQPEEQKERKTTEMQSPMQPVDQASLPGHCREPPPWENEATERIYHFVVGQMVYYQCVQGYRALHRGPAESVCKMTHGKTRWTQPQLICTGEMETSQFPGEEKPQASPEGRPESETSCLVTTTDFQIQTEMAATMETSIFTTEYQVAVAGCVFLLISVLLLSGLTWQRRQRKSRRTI

T2: CD25-His recombinant protein (human, UniProt P01589 22-240)
T2 chain: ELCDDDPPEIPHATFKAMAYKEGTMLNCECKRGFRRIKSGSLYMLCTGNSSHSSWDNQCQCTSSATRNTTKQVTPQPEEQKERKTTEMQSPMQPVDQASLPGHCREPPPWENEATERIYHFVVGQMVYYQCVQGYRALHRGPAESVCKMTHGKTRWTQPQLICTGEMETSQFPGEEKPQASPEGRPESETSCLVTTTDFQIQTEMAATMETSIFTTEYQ

T3: CD25 on the CHO-CD25-overexpressing cell line (human, UniProt P01589 22-272)
T3 sequence (looked up): T1 chain

T4: CD25-His recombinant protein (human, UniProt P01589 22-240, limits assumed)
T4 construct: Recombinant antigen made by the applicant; also called CD25-His antigen; CD25 antigen; not shown: His tag
T4 sequence (looked up): T2 chain

B1: E08 (VHH)
VHH: AVQLVESGGGLVQPGGSLRLSCAASGFTFSSYPMGWYRQAPGEECELVAGITSAGGSTNYADSVKGRFTISRDNAKNTVYLQMNSLKPEDTAVYYCNTDPRYYTDSRGPCSWGQGTQVTVSS
B2: clone A07 (VHH)
VHH: EVQLVESGGGLAQPGGSLRLSCAVSGFTLDYYAIGWFRQAPGKEREGVSCISGSDGRTAYTDSVKGRFTISKDNAKNTVYLQMNSLKPEDTAVYYCAADPGYYCAGEVRYAGSLYDYWGQGTQVTVSS
notes: Recombinant antibody from a eukaryotic expression vector (293F); also called A-A7; A-A07-VHH
B3: A11 (VHH)
VHH: DVQLVESGGGLVQPGGSLRLSCAASGFTFSSYAMSWYRQAPGKERELVAYITTSPGYTTYTDSVKGRFTISRDNAKNTVYLQMNSLKPDDTAVYYCNAWRGAPRGDYWGQGTQVTVSS
B4: A05 (VHH)
VHH: QVQLVESGGGLAQPGGSLRLSCAASGFTFSIYAMSWARQAPGKGLEWVSGIYSDSSYTYYADSVKGRFTISRDNAKNTLYLQMNSLKPEDTALYYCLKARGSGSYYPFDDYRGQGTQVTVSS
B5: B04 (VHH)
VHH: QVQLVESGGGLVQPGGSLRLSCATSGFTLDYYAIGWFRQAPGKEREGVSCISSSDGTTAYADSVKGRFTISTDNARNTVYLQMNSLKPEDTAVYYCAADLGYYCADNVRYAGSLYDYWGQGTQVTVSS
B6: G10 (VHH)
VHH: DVQLVESGGGLAQPGGSLRLSCAASGFTFSNYAMNWLRQAPGKGLEWVSGIYSDSSGTYYADSVKGRFTISRDNAKNTLYLQMNSLKPEDTALYYCAKASNSGSYYPWDDDWGQGTQVTVSA
B7: D01 (VHH)
VHH: QVQLVESGGGLAQPGGSLRLSCAASGFTFSNFAVSWARQVAGEGFEWVSGVYSDGDTYYADSVKDRFIISRDNAKNTLYLQMNSLKPEDTALYYCGAARGRLCSSIMTCDYWGQGTQVTVSS
B8: D04 (VHH)
VHH: QVQLVESGGGLVQPGGSLRLSCAASGFTFSSSAVSWARLTPGKRLEWVSAIASDGSTYYADSMQGRFTISRDNAKNTVYLQMNSLKPEDTAVYYCAIPRDGLVPVFGIDYWGQGTQVTVSS
B9: A07-HM5 (VHH)
VHH: B2 VHH with A12V, E44G, R45L, T61A, K87R, P88A, Q123L
B10: A07-HM6 (VHH)
VHH: B2 VHH with V5L, A12V, E44G, R45L, T61G, K87R, P88A, Q123L
B11: B10 (VHH)
VHH: EVQLVESGGGLVQPGGSLRLSCAVFGVTLDSYAIGWFRQAPGKEREGVSCISTSDGRTWETDAVLGRFTISRDNAKNTVYLQMNDLKPEDTAVYYCGADGRDWCSAHVYSRYEYDYSGQGTQVTVSS
notes: Tested as transfection supernatant

Results on eleven molecules are retold here after US20260070994A1 (PASSION TECHNOLOGY ZHUHAI PARTNERSHIP LIMITED PARTNERSHIP, published 2026).

Where a chain is given by its changes, count along the chain named.

In the first experiment the target is T1, CD25 on the CHO-CD25-overexpressing …. The experiment can be described thus: FACS.
For orientation: EC50 means the concentration needed to bring the measured effect to its halfway point. In turn, B1 had a 50% effective concentration (EC50) of 1.14 µg/mL.

B2 yielded an EC50 of 2.8 µg/mL.

B3 yielded an EC50 of 2.8 µg/mL.

In the case of B4, it took 1.59 µg/mL to reach a half-maximal effect (EC50).

Molecule B5 displayed a concentration giving a half-maximal response (EC50) of 7.02 µg/mL.

Turning to B6, the EC50 turned out to be 1.88 µg/mL.

As for B7, the EC50 turned out to be 1.27 µg/mL.

Another experiment addresses T2, CD25-His recombinant protein. The experiment is described as follows: ELISA. A general note: ELISA stands for enzyme-linked immunosorbent assay.
Consider B1, for which the EC50 is 0.00875 µg/mL.

As for B2, the half-maximal effective concentration (EC50) turned out to be 0.0559 µg/mL.

For B3, the EC50 is 0.0128 µg/mL.

Take B4: the EC50 turned out to be 0.0177 µg/mL.

As to B5, the half-maximal effective concentration (EC50) is 0.164 µg/mL.

Consider B6, for which the EC50 was determined as 0.0193 µg/mL.

Take B7: the EC50 worked out at 0.0261 µg/mL.

For the molecule B8, the EC50 was found to be 0.0281 µg/mL.

For the next experiment, the target named is T1, CD25 on the CHO-CD25-overexpressing …. The experiment is described as follows: FACS. This is another data set of the same source. A general note: Flow cytometry measures light scatter and fluorescence of single cells or particles in a stream.
Regarding B9, the midpoint of the response, the EC50, lay at 0.632 µg/mL.

Consider B10, for which the midpoint of the response, the EC50, lay at 0.772 µg/mL.

B2: the EC50 was found to be 0.399 µg/mL.

For the next experiment, the target named is T2, CD25-His recombinant protein. The experiment is described as follows: BLI.
The Kd is the constant that tells how readily two partners part at equilibrium. Take B9: the Kd came out at 9.62 nM.

Take B10: the dissociation constant Kd amounted to 14.6 nM.

As for B2, the dissociation constant (Kd) stood at 6.67 nM.

The target of a further experiment is T3, CD25 on the CHO-CD25-overexpressing …. The experiment can be described thus: cell-based or functional assay.
As for B9, the “ADCC EC50” value is 0.0074 µg/mL.

As to B10, the “ADCC EC50” value turned out to be 0.0047 µg/mL.

On to B2, for which the “ADCC EC50” value is 0.0186 µg/mL.

Another experiment addresses T4, CD25-His recombinant protein. The experiment can be described thus: ELISA on human CD25 antigen, antibody 10 µg/ml.
As to B2, the “ELISA OD” value is 4.39.

For a further experiment the target is unchanged. The experiment is described as follows: ELISA on CD25 antigen, transfection supernatant 5 µL. The protocol:
The CD25-His protein was coated on a 96-well microplate. After the candidate antibodies were transiently transfected into 293F cells for 48 hours, the supernatant was collected and ELISA detection was performed.
As for B11, the “ELISA OD” value amounted to 4.38.

For a further experiment the target is unchanged. The experiment can be described thus: ELISA on human CD25 antigen, antibody 0.016 µg/ml.
As for B2, the “ELISA OD” value was 0.2.
